# In the supplement of paper PMC9170038:
# System: MS2 coat protein
# Assay: apparent KD of MS2 coat protein; designed switch direction (-1 OFF switch, 1 ON switch): 1; higher = weaker reporter binding
# In short: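 Designed RNA switches with common flanks were transcribed on Illumina chips by stalled E. coli RNA polymerase and titrated with SNAP-549-labelled MS2 coat protein, from 0.7 or 1.5 nM doubling to 3 µM, in Tris-HCl pH 7.5 buffer with KCl, MgCl2, BSA, DTT, tRNA and Tween-20. Steps lasted 0.8–1.5 h (lowest) to 10–20 min (highest). Titrations ran without input, with 200 uM small-molecule ligand, or with an oligonucleotide input. Normalised cluster fluorescence was curve-fitted, and apparent KD is the per-design median over clusters.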
# [1] = input ligand: microRNA oligo, concentration not stated
# [2] = Eterna round: R95, input ligand: FMN 200 uM
# [3] = Eterna round: R95, input ligand: microRNA oligo, concentration not stated
# [4] = Eterna round: R95, input ligand: none
Sequence,apparent KD of MS2 coat protein (input ligand: FMN 200 uM) [nM],apparent KD of MS2 coat protein [1] [nM],apparent KD of MS2 coat protein (input ligand: none) [nM],apparent KD of MS2 coat protein [2] [nM],apparent KD of MS2 coat protein [3] [nM],apparent KD of MS2 coat protein [4] [nM]
"CCGGUUUAUGGAGGAUAUGGAGCCUUAUUGGCUCCAGAAGGCUAAUACAUGAGGAUCACCCAUGUUCCGGCGGUCAAUAGACCG [Eli NG1ss - 58] (Eterna round: R96, puzzle: Same State NG 1)",23.9,77.8,126,–,–,–
"UGCUAGUGGGUAGGAUAUCUAGGAUAUGGGAAAGACUAAGUCUGUAGGUCACCUAACCCAGAAGGAGAGAAGGACCAUUCAGCU [pwkr ssNG2 2FMN + F9.26] (Eterna round: R96, puzzle: Same State NG 2)",165,22.5,38,–,–,–
UUCCUACAUGAGGAUCACCCAUGUGACGCCUCGAUAGGAUAUGCGUGUGCCUUGGCGCAUGCAGAAGGAUUGUAGC [JL Aveso mod 8] (puzzle: Same State 1),–,–,–,224,27.6,21.4
"UCGAGCGUACUUGCAGACAUGAGGAUCACCCAUGUAAAUGGGAAGGAUAUGGUACCGUUUCGGUACCAGAAGGUCCUGGGUGCU [salish99_SSNG3_r04_307] (Eterna round: R96, puzzle: Same State NG 3)",329,1090,984,–,–,–
"AGCUAUUACGAAGGAUAUAGGGACAUGAGGAUCACCCAUGUGUACAUGAGUAAAUGUGAUCACGUCUAGAAGGUUGUACUAACA [SameState NG2 #36] (Eterna round: R96, puzzle: Same State NG 2)",474,383,430,–,–,–
"GGUCGGAACCACAUGAGGAUCACCCAUGUUCCGGAAACGGUACAGGAUAUCUGUCCGAAAAGGUCAGAGAAGGGUGAACCGACC [Fiskers NG3ss - 77] (Eterna round: R96, puzzle: Same State NG 3)",1090,349,312,–,–,–
GUGGUGUAGAUACAGGAUAUGUUGCUCGUAACAUGAGGAUCACCCAUGUAUCUAUGAGAAUAAAUGCAGAAGGGUGCACACCACG [Mat - Same State 2 - Mod of UCT - D73] (puzzle: Same State 2),–,–,–,19.1,352,311
GGAGAACAUGAGGAUCACCCAUGUGAGAGGGAUGUAGGAUAUGUGAGGAGUAAAGGAGGGACAGAAGGACAGAGAU [JR_SS!_Sub068] (puzzle: Same State 1),–,–,–,37.4,40.5,47.7
UGUCCAGCCUGAGCUGGACAAAAGCAUGUACAUGAGGAUCACCCAUGUUCAUGUACAAGCUUUUUGCUCGUCUUAUU [salish99_208a_r3_048] (puzzle: Sensor for hsa-mir-208a),–,–,–,465,14.1,491
"UGGCUCAGACGAGGAUAUGGUCAUGGCGCUUCGGCGCAUACAUGAGGAUCACCCAUGUAGGGUGAUCAGAAGGCGUCUGAGCCA [SSNG2/9-A2] (Eterna round: R96, puzzle: Same State NG 2)",87.2,573,715,–,–,–
GUAAAACAUGAGGAUCACCCAUGUCAAUGUAGUCGAGGAUAUGGGUAGCUAUGAGGCGUACUAGAAGGCGAAAAGU [Mat - Same State 1 - Mod of JL - D18] (puzzle: Same State 1),–,–,–,91.8,85.5,248
"ACAUGAGACGGAGGAUAUCUUGUACCUACAUGUGACAUGAGGAUCACCCAUGUGGUAAGUAUGAUAGAGAAGGCCGAGAUAUGU [Equivalance 57 - Jieux - Same State NG 2] (Eterna round: R96, puzzle: Same State NG 2)",16.1,15,25.4,–,–,–
"AUUUUUAAUGCAGGAUAUGAUUAACAUGAGGAUCACCCAUGUGGUGUUGUGAGUAAGGAGAGUGAUCAGAAGGGCAUUUUUGUU [JMF's solution 85] (Eterna round: R96, puzzle: Same State NG 2)",686,466,715,–,–,–
"UUCCCAUCGGGAGGAUAUGGUUCCUUAUUGGUUCUAGAAGGUCCAACAUGAGGAUCACCCAUGUGGGAGUGGUCUAAUGACCUC [SS NG10LRO05] (Eterna round: R96, puzzle: Same State NG 1)",889,256,702,–,–,–
AUAAAACAUGAGGAUCACCCAUGUCAACAAUGUCGAGGAUAUGGGCAAAUAAAAUAAGAACCAGAAGGCGAAUAAU [salish99_ss1_r3_039] (puzzle: Same State 1),–,–,–,43.2,248,507
AUUAAACAUGAGGAUCACCCAUGUCAUCAAAGUCGAGGAUAUGGGCAAAUAAAAUAAGAACCAGAAGGCGAAUAAU [salish99_ss1_r3_073] (puzzle: Same State 1),–,–,–,69.6,122,269

Sequence,apparent KD of MS2 coat protein (input ligand: FMN 200 uM) [nM],apparent KD of MS2 coat protein [1] [nM],apparent KD of MS2 coat protein (input ligand: none) [nM],apparent KD of MS2 coat protein [2] [nM],apparent KD of MS2 coat protein [3] [nM],apparent KD of MS2 coat protein [4] [nM]
"CACAUGAGGAUCACCCAUGUGAGGCGGCAAUAAAACCGCGCACAGGAUAUAGCGCUAAGAAUGCGCUAGAAGGGUGAUUAGAAC [Esenla] (Eterna round: R96, puzzle: Same State NG 3)",746,10.4,39.2,–,–,–
"UUUGCAUUGCAAGGAUAUUGAUAACAUGAGGAUCACCCAUGUAUAGGUUCAGGAUUUACGAGUAACAAGAAGGUGCUAUUGUUU [JR_SSNG2_Sub040] (Eterna round: R96, puzzle: Same State NG 2)",27.6,20.7,31.8,–,–,–
"AGACUACAACCUCGAACAUGAGGAUCACCCAUGUAAAGAUCCAAGGAUAUGGACAGGCCGAGCUACCAGAAGGUGGAAAGAGCC [Eternabot solution 7] (Eterna round: R96, puzzle: Same State NG 3)",40.9,38.4,69.8,–,–,–
"GCUACAUGAGGAUCACCCAUGUGUGCGUGGGAGUGAGUGGCUUAGGAUAUCUAUGACUUGAGUUGAGAGAAGGAGGAUUGCUGU [SS-NG3-LRO12] (Eterna round: R96, puzzle: Same State NG 3)",105,82.6,118,–,–,–
UUAAAACAUGAGGAUCACCCAUGUCAACAAAGUCGAGGAUAUGGGCAAAUAAAAUAAGAACCAGAAGGCGAAUAAC [salish99_SS1_r3_007] (puzzle: Same State 1),–,–,–,43.9,422,390
"CUGAAAUGUCAAGGAUAUCACGUCGAUUAGACGUGAGAAGGUGAUCUGCACAUGAGGAUCACCCAUGUGUUACAUGGGAGUCAG [Brourd's SSNG1/1-A2 mod 16] (Eterna round: R96, puzzle: Same State NG 1)",600,324,891,–,–,–
"UGGCUGAGUCGAGGAUAUGAUCUUCAUAUAUAUACAUGAGGAUCACCCAUGUAUAAUUACAUGGAUCAGAAGGCGACUCAGCCA [SSNG2/13-A1] (Eterna round: R96, puzzle: Same State NG 2)",–,22.9,–,–,–,–
"GGAGCCGGCCUAGGAUAUUUCAUUAAAAAACAUGAGGAUCACCCAUGUAGGCCAGAAGGCCUUGGGAAGAAGGAGGUCGGCUCC [Loop Effect - U24] (Eterna round: R96, puzzle: Same State NG 2)",12.7,16.2,24.6,–,–,–
AUAAAACAUGAGGAUCACCCAUGUCAACAAAGUCGAGGAUAUGGGCAAAUAAAAUAAGAACCAGAAGGCGAAUAAU [salish99_SS1_r3_001] (puzzle: Same State 1),–,–,–,–,233,–
"GUAAUCGUUAUAGGAUAUCAUGAGGAUUACCCAUGAGAAGGGUGAUCUCGAUCCAUAUUCAGAAAAUGAAUGUGGAUAGAUUGC [Omei NG1 A v2] (Eterna round: R96, puzzle: Same State NG 1)",1010,292,1150,–,–,–
"GGGAGACAUGAGGAUCACCCAUGUGAGAAGAGGCGAGGAUAUCGAAAAAAAAAAAAAAAACGAGAAGGCGCGAGAU [salish99-SS1-004] (Eterna round: R96, puzzle: Same State 1)",43.5,133,115,–,–,–
"CUUUCUCUUGCAGGAUAUCCUAGUCUUCGGUUAGGAGAAGGGCAAGGAAAUUUGCUAAGCAAGUCUGUAACAGAGAUCCUCCUC [pwkr ssNG1 F9.1] (Eterna round: R96, puzzle: Same State NG 1)",30.8,313,37.9,–,–,–
AGUCCAGCCUGAGCUGGACAAAAGCAUGUACAUGAGGAUCACCCAUGUUCAUGUACAAGCUUUUUGCUCGUCUUGCC [salish99_208a_r3_107x] (puzzle: Sensor for hsa-mir-208a),–,–,–,634,15.9,1130
"GGAUGAUGGACAGGAUAUUGAUUGUAAUGGUGUCAAGAAGGGUCUUUGAUUUAAACGACCAGUUACAUGAGGAUCACCCAUGUU [JR_SSNG1_Sub031] (Eterna round: R96, puzzle: Same State NG 1)",133,107,205,–,–,–
"AGAGGAGGAGCAGGAUAUUCGAAGAAGAACGUGGAAGAAGGGUUCAUGCGAUGACAUGAGGAUCACCCAUGUACCGCGCGAGGA [AK SSNG1-V2-11] (Eterna round: R96, puzzle: Same State NG 1)",50,42.9,67.6,–,–,–
